# Assay results as given in the RNAGym collection of RNA variant scans (doi:10.7554/elife.80360).
# B1: HDV Ribozyme (parent)
# chain: GGCCGGCAUGGUCCCAGCCUCCUCGCUGGCGCCGGCUGGGCAACAUUCCGAGGGGACCGUCCCCUCGGUAAUGGCGAAUGGGACCCA
# Variants of: B1
# Experiment: self-cleavage, relative activity (ratio to wild type); higher = more cleavage; co-transcriptional
row,Variant,self-cleavage
1,GUCCGGCAUGGUCCCAGCCUCCUCGCUGGCGCCGGCUGGGCAACAUUCCGAGGGGACCGUCCCCUCGGUAAUGGCGAAGGGGACCCA [G2U U79G],0
2,GUCCGGCAUGGUCCCAGCCUCCUCGCUGGCGCCGGCUGGGCAACAUUCCGAGGGGACCGUCCCCUCGGUAAUGGCGAAAGGGACCCA [G2U U79A],0
3,GGACGGCAUGGUCCCUGCCUCCUCGCUGGCGCCGGCUGGGCAACAUUCCGAGGGGACCGUCCCCUCGGUAAUGGCGAAUGGGACCCA [C3A A16U],0.318
4,GGACGGCAUGGUCCCAGCCUCCUCGCUGGCGCCGGCUGGGCAACAUUCCGAGGGGACCGUCCCCUCGGUAAUGGCGAAUGGGGCCCA [C3A A83G],0.434
5,GGACGGCAUGGUCCCAGCCUCCUCGCUGGCGCCGGCUGGGCAACAUUCCGAUGGGACCGUCCCCUCGGUAAUGGCGAAUGGGACCCA [C3A G52U],0.404
6,GGACGGCCUGGUCCCAGCCUCCUCGCUGGCGCCGGCUGGGCAACAUUCCGAGGGGACCGUCCCCUCGGUAAUGGCGAAUGGGACCCA [C3A A8C],0.299
7,GGACGGCAUGGUCCCAGCCUCCUCGCUGGCGCCGGCUGGGCAACAUUCCGAGGGGACCGUCCCGUCGGUAAUGGCGAAUGGGACCCA [C3A C64G],0.32
8,GGACAGCAUGGUCCCAGCCUCCUCGCUGGCGCCGGCUGGGCAACAUUCCGAGGGGACCGUCCCCUCGGUAAUGGCGAAUGGGACCCA [C3A G5A],0.0332
9,GGACGGCAUGGUCCCAGCCUCCUCGCUGGCGCCGGCUGGGCAACAUUCCAAGGGGACCGUCCCCUCGGUAAUGGCGAAUGGGACCCA [C3A G50A],0.545
10,GGACGGCAUGGUCCCAGCCUCCUCGCUGGCGCCGGCUGGGCAACAUUCCUAGGGGACCGUCCCCUCGGUAAUGGCGAAUGGGACCCA [C3A G50U],0.754
11,GGACGGCAUGGUCCCAGCCUCCUCGCUGGCGCCGGCUGGGCAACAUUGCGAGGGGACCGUCCCCUCGGUAAUGGCGAAUGGGACCCA [C3A C48G],0.795
12,GGACGGCAUGGUCCCAGCCUCCUCGCUGGCGCCGGCUGGGCAACAUUCCGAGGGGACUGUCCCCUCGGUAAUGGCGAAUGGGACCCA [C3A C58U],0.596
13,GGACGGCAUGGUCCCAGCCUCCUCGCUGGCGCCGGCUGGGCAACAUUCCGAGGGGACAGUCCCCUCGGUAAUGGCGAAUGGGACCCA [C3A C58A],0.609
14,GGACGGCAUGGUCCCAGCCUCCUCUCUGGCGCCGGCUGGGCAACAUUCCGAGGGGACCGUCCCCUCGGUAAUGGCGAAUGGGACCCA [C3A G25U],0.0631
15,GGACGGCAUGGUCGCAGCCUCCUCGCUGGCGCCGGCUGGGCAACAUUCCGAGGGGACCGUCCCCUCGGUAAUGGCGAAUGGGACCCA [C3A C14G],0.17
16,GGACGGCAUGGUCCCAGCCUCCUCGCUGGCGCCGGCUGGGCAACAUUCCGAGGGGAUCGUCCCCUCGGUAAUGGCGAAUGGGACCCA [C3A C57U],0.701
17,GGACGGCAUGGUCCCAGCCUCCUGGCUGGCGCCGGCUGGGCAACAUUCCGAGGGGACCGUCCCCUCGGUAAUGGCGAAUGGGACCCA [C3A C24G],0.089
18,GGACGGCAUGGUCCCAGCCUCCUCGCUGGCGCCAGCUGGGCAACAUUCCGAGGGGACCGUCCCCUCGGUAAUGGCGAAUGGGACCCA [C3A G34A],0.123
19,GGACGGCAUGGUCCCAGCCUCCUCGCUGGCGCCGGCUGGGCAACAUUCCGAGGGGCCCGUCCCCUCGGUAAUGGCGAAUGGGACCCA [C3A A56C],0.495
20,GGACGGCAUGGUCCCAGCCUCCUCGCUGGCGCCGGCUGUGCAACAUUCCGAGGGGACCGUCCCCUCGGUAAUGGCGAAUGGGACCCA [C3A G39U],0.0777
21,GGACGGCAUGGUACCAGCCUCCUCGCUGGCGCCGGCUGGGCAACAUUCCGAGGGGACCGUCCCCUCGGUAAUGGCGAAUGGGACCCA [C3A C13A],0.0329
22,GGACGGCAUGGUCCCAGCCUCCUCGCUGGCGCCGGAUGGGCAACAUUCCGAGGGGACCGUCCCCUCGGUAAUGGCGAAUGGGACCCA [C3A C36A],0.071

row,Variant,self-cleavage
1,GGACGGCAUGGUCCCAGCCUCCUCGCUGGCGCCGGCUGGGCAACAUUCCGAGGGGACCAUCCCCUCGGUAAUGGCGAAUGGGACCCA [C3A G59A],0.739
2,GGACGGCAUGGUCCCAGCCUCCUCGCUGGCGCCGGCUGGGCAACAUUCCGAGGGGACCCUCCCCUCGGUAAUGGCGAAUGGGACCCA [C3A G59C],0.668
3,GGACGGCAUGGUCCCAGCCUCCUCGCUGGCGCCGGCUGGGCAACAUUCCGAGGGGACCGUCCCCUAGGUAAUGGCGAAUGGGACCCA [C3A C66A],0.473
4,GGACGGCAUGGUCCCAGCCUCCUCGCUGGCGCCGGCUGGGCUACAUUCCGAGGGGACCGUCCCCUCGGUAAUGGCGAAUGGGACCCA [C3A A42U],0.0773
5,GGACGGCAUGGUCCUAGCCUCCUCGCUGGCGCCGGCUGGGCAACAUUCCGAGGGGACCGUCCCCUCGGUAAUGGCGAAUGGGACCCA [C3A C15U],0.371
6,GGACGGCAUGGUCCCAGCCUCCUCGCUGGCGCCGGCUGGGCAACUUUCCGAGGGGACCGUCCCCUCGGUAAUGGCGAAUGGGACCCA [C3A A45U],0.269
7,GGACGGCAUGGUCCCAGCCUCCUCGCUGGCGCCGGCUGGGCAACAUUCCGAGGGGACCGUCCCCUCGGUCAUGGCGAAUGGGACCCA [C3A A70C],0.501
8,GGACGGCAUGGUCCCAGCCUCCUCGCUGGCGCCGGCUGGGCAACAUUCCGAGGGGACCGUCCCCUCGGUAAUGGAGAAUGGGACCCA [C3A C75A],0.0784
9,GGACGGCAUGGUCCCAGCCUCCUCGCUGGCGCCGGCUGGGCAACAUUCCGAGGGGACCGUCCCCUCGCUAAUGGCGAAUGGGACCCA [C3A G68C],0.363
10,GGACGGCAUGGUCCCAGCCUCCUCGCUGGCGCCGGCUGGGCAACAUUCCGAGGGGACCGUCCCCUCGGUAAUGGCGAAUGGGACCCU [C3A A87U],0.632
11,GGACGGCAUGGUCCCAGCCUCCUCGCUGGCGCCGGCUGGGCAACAUUCCGAGGGGACCGUCCCCUCAGUAAUGGCGAAUGGGACCCA [C3A G67A],0.462
12,GGACGGCAUGGUCCCAGCCUCCUCGCUGGCGCCGGCUGGGCAACAUUCCGAGGGGACCGUCCCCUCGGUAAUGGCGAAUGGGACACA [C3A C85A],0.646
13,GGACGGCAUGGUCCCAGCCUCCUCGCUGGCGCCGGCUGGGCAACAUUCCGAGAGGACCGUCCCCUCGGUAAUGGCGAAUGGGACCCA [C3A G53A],0.519
14,GGACGGCAUGGUCCCAGCCUCCUCGCUGGCGCCGGCUGGGCAACAUUCCGAGGGGACCGUCCCCUCGGUAUUGGCGAAUGGGACCCA [C3A A71U],0.385
15,GGACGGCAUGGUCCCAGCCUCCUCGCUGGCGCCGGCUGGGCAACAUUCCGAGGGGACCGUCCCCUCGGUAGUGGCGAAUGGGACCCA [C3A A71G],0.38
16,GGACGGCAUGGUCCCAGCCUCCUCGCUGGCGCCGGCUGGGCAACAUUCCGAGGGAACCGUCCCCUCGGUAAUGGCGAAUGGGACCCA [C3A G55A],0.705
17,GGACGGCAUGGUCCCAGCCUCCUCGCUGGCGGCGGCUGGGCAACAUUCCGAGGGGACCGUCCCCUCGGUAAUGGCGAAUGGGACCCA [C3A C32G],0.0266
18,GGACGGCAUGGUCCCAGCCUCCUCGCUGGCACCGGCUGGGCAACAUUCCGAGGGGACCGUCCCCUCGGUAAUGGCGAAUGGGACCCA [C3A G31A],0.0507
19,GGACGGCAUGGUCCCAGCCUCCUCGCUGGCCCCGGCUGGGCAACAUUCCGAGGGGACCGUCCCCUCGGUAAUGGCGAAUGGGACCCA [C3A G31C],0.0166
20,GGACGGCAUGGUCCCAGCCUCCUCGCUGGCGCCGGCUGGGCAACAUUCCGAGGGGACCGUCCCCUCGGUAAUGGCGAAUGGGAUCCA [C3A C84U],0.157
21,GGACGGCAUGGUCCCAGUCUCCUCGCUGGCGCCGGCUGGGCAACAUUCCGAGGGGACCGUCCCCUCGGUAAUGGCGAAUGGGACCCA [C3A C18U],0.00889
22,GGACGGCAUGGUCCCAGACUCCUCGCUGGCGCCGGCUGGGCAACAUUCCGAGGGGACCGUCCCCUCGGUAAUGGCGAAUGGGACCCA [C3A C18A],0.0282

row,Variant,self-cleavage
1,GGACGGCAUGGUCCCAGCCUCCUCGCUGGGGCCGGCUGGGCAACAUUCCGAGGGGACCGUCCCCUCGGUAAUGGCGAAUGGGACCCA [C3A C30G],0.0166
2,GGACGGCAUGGUCCCAGCCUCCUCGCUUGCGCCGGCUGGGCAACAUUCCGAGGGGACCGUCCCCUCGGUAAUGGCGAAUGGGACCCA [C3A G28U],0.0536
3,GGACGGCAUGGUCCCAGCCUCCUCGCUAGCGCCGGCUGGGCAACAUUCCGAGGGGACCGUCCCCUCGGUAAUGGCGAAUGGGACCCA [C3A G28A],0.0138
4,GGACGGCAUGGUCCCAGCGUCCUCGCUGGCGCCGGCUGGGCAACAUUCCGAGGGGACCGUCCCCUCGGUAAUGGCGAAUGGGACCCA [C3A C19G],0.0441
5,GGACGGCAUGGUCCCAGCCUCAUCGCUGGCGCCGGCUGGGCAACAUUCCGAGGGGACCGUCCCCUCGGUAAUGGCGAAUGGGACCCA [C3A C22A],0.0716
6,GGACGGCAUGGUCCCAGCCUCUUCGCUGGCGCCGGCUGGGCAACAUUCCGAGGGGACCGUCCCCUCGGUAAUGGCGAAUGGGACCCA [C3A C22U],0.15
7,GGACGGCAUGUUCCCAGCCUCCUCGCUGGCGCCGGCUGGGCAACAUUCCGAGGGGACCGUCCCCUCGGUAAUGGCGAAUGGGACCCA [C3A G11U],0.138
8,GGACGCCAUGGUCCCAGCCUCCUCGCUGGCGCCGGCUGGGCAACAUUCCGAGGGGACCGUCCCCUCGGUAAUGGCGAAUGGGACCCA [C3A G6C],0.0282
9,GGACGACAUGGUCCCAGCCUCCUCGCUGGCGCCGGCUGGGCAACAUUCCGAGGGGACCGUCCCCUCGGUAAUGGCGAAUGGGACCCA [C3A G6A],0.0931
10,GGACGGCAUGGUCCCAGCCUCCUCGCUGGCGCCGGCUGGGAAACAUUCCGAGGGGACCGUCCCCUCGGUAAUGGCGAAUGGGACCCA [C3A C41A],0.25
11,GGACGGCAUGGUCCCAGCCUCCUCGCUGGCGCCGGCUGGGUAACAUUCCGAGGGGACCGUCCCCUCGGUAAUGGCGAAUGGGACCCA [C3A C41U],0.321
12,GGACGGCAUGGUCCCAGCCUCCUCGCUGGCGCCGGCUGGGCAACAUUCCGAGGGGACCGUCCACUCGGUAAUGGCGAAUGGGACCCA [C3A C63A],0.492
13,GGACGGCAUGGUCCCAGCCUCCUCGCUGGCGCCGGCUGGGCAACAUUCCGAGGGGACCGUGCCCUCGGUAAUGGCGAAUGGGACCCA [C3A C61G],0.512
14,GGACGGCAUGGUCCCACCCUCCUCGCUGGCGCCGGCUGGGCAACAUUCCGAGGGGACCGUCCCCUCGGUAAUGGCGAAUGGGACCCA [C3A G17C],0.0329
15,GGACGGCAUGGUCCCAGCCUCCUCGCUGGCGCCGGCUGGCCAACAUUCCGAGGGGACCGUCCCCUCGGUAAUGGCGAAUGGGACCCA [C3A G40C],0.0923
16,GGACGGCAUGGUCCCAGCCUCCUCGCUGGCGCCGGCUGGUCAACAUUCCGAGGGGACCGUCCCCUCGGUAAUGGCGAAUGGGACCCA [C3A G40U],0.256
17,GGACGGCAUGGUCCCAGCCUCCUCGCUGGCGCCGGCUGGGCAACAUUCCGAGGCGACCGUCCCCUCGGUAAUGGCGAAUGGGACCCA [C3A G54C],0.34
18,GGACGGCAUGGUCCCAGCCUCCUCGCUGGCGCGGGCUGGGCAACAUUCCGAGGGGACCGUCCCCUCGGUAAUGGCGAAUGGGACCCA [C3A C33G],0
19,GGACGGCAUGGUCCCAGCCUCCUCGUUGGCGCCGGCUGGGCAACAUUCCGAGGGGACCGUCCCCUCGGUAAUGGCGAAUGGGACCCA [C3A C26U],0.853
20,GGACGGCAUGGUCCCAGCCUCCUCGCUGGCGCCGGCUGGGCAACAUUCCGCGGGGACCGUCCCCUCGGUAAUGGCGAAUGGGACCCA [C3A A51C],0.374
